The values that follow come from patent US20180334496A1 (KODIAK SCIENCES, published 2018).

Substitutions are numbered along the chain they refer to. Where “and” joins values, the source holds several entries; their conditions need not be identical. Equal entries are not always repeated.

Assay [1] addresses T1, recombinant human CFD mutant 1 (R157A, R207A), His-tagged (human, UniProt P00746 26-253).
T1 construct: positions are linear positions in the mature protein; also called rhCFD-mut1-His; Mut1
As to the kind of experiment: SPR MX96.

Assay [2] addresses T2, human complement factor D purified from serum (human, UniProt P00746 26-253).
T2 construct: serum-purified (CompTech); also called hCFD-Comptech; CFD
The experiment in a line: SPR MX96.

Assay [3] addresses T3, recombinant cynomolgus CFD, His-tagged (cynomolgus).
T3 construct: also called rcyCFD-His; recombinant Cyno-CFD
As to the kind of experiment: SPR MX96.

The target of assay [4] is T4, recombinant human CFD, His-tagged (human, UniProt P00746 26-253).
T4 construct: also called rhCFD-His
The experiment in a line: SPR MX96.

Assay [5] addresses T2, human complement factor D purified from …. The experiment in a line: Biacore, protein A capture.
For assay [6], the target named is T5, serum purified human Complement Factor D (human, UniProt P00746 26-253).
T5 construct: Serum purified protein flowed over the captured antibodies; also called CFD; human CFD
The experiment in a line: SPR Biacore, antibody on protein A chip, single cycle kinetics, 37 C.

For assay [7], the target named is T5, serum purified human Complement Factor D. The experiment in a line: SPR Biacore, antibody on protein A chip, single cycle kinetics, 25 C.
The target is the same in assay [8]. Described as above. This is another data set of the same source.
Assay [9] shares this target. As to the kind of experiment: SPR Biacore, antibody on protein A chip, single cycle kinetics, 37 C. The source holds these as a separate data set.
Assay [10] has the same target. As to the kind of experiment: SPR Biacore, 25 C. In general terms: Surface plasmon resonance follows binding to a sensor surface in real time, without labels.
For assay [11] the target is unchanged. As to the kind of experiment: SPR Biacore, 37 C.

T1 sequence (P00746 26-253 R182A/R232A limits assumed): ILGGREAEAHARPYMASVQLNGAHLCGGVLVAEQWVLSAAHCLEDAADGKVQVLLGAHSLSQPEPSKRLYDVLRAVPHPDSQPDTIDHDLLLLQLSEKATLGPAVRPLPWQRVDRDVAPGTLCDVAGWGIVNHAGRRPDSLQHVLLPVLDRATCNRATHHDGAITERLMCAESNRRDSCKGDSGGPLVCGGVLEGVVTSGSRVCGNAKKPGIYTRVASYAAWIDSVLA
T4 sequence (P00746 26-253 limits assumed): as the sequence (P00746 26-253 R182A/R232A limits assumed) above, with A157R, A207R counted along it
T5 sequence (P00746 26-253): as the sequence (P00746 26-253 R182A/R232A limits assumed) above, with A157R, A207R counted along it
T2 sequence (P00746 26-253): as the sequence (P00746 26-253 R182A/R232A limits assumed) above, with A157R, A207R counted along it

B1: KCD135 (antibody, V domains shown)
VH: EVQLQQSGPELVKPGASVRMSCKASGYIFTDYSIHWVKQSHGKSLEWIGYINPNNGGTSYNQKFKGKATLTVNKSSTTAYMELRSLTSEDSAVYFCARDTTIVGDYWGQGTTLTVSS
VL: DIVMTQSQKFMSTSVGDRVSVTCKASQHVGTNVVWYQQKPGQSPKALIYSASYRYSGVPDRFSGSGSGTDFTLTISNVQSEDLAEYFCQQFNSYPLTFGGGTKLEIK
What is called Kd is the concentration at which binding is half-saturated. Take B1: the Kd in assay [1] amounted to 15 nM; in assay [2], 21 nM; in assay [3], 18 nM; in [4], 13 nM.

B2: KCD052 (antibody, V domains shown)
VH: QVQLKESGPGLVAPSQSLSITCTVSGFSLNSYGVQWVRQPPGQGLEWLGVIWRDGSITYNSALKSRLSIRKDNSKSQVFLKMNSLQTDDTAMYYCGRTSHYGNYNYYVMDYWGQGTAVTVSS
VL: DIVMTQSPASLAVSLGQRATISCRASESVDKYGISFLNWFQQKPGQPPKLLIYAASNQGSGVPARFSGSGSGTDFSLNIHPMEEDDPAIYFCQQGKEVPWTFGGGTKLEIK
With B2, the Kd in assay [1] was found to be 2.5 nM; in [2], 3.1 nM; in [3], 10 nM; in assay [4], 3.7 nM.

B3: KCD119 TAF heavy chain / KCD119 TAF light chain (antibody, V domains shown)
VH: EVQLVESGGGLVQPGGSLRLSCAASGYTFTDYYMNWVRQAPGKGLEWIGDINPNTGDTSYNADFKRRFTFSLDTSKSTAYLQMNSLRAEDTAVYYCTREGPSFAYWGQGTLVTVSS
VL: DIQLTQSPSSLSASVGDRVTITCRSSQTIVHSNGDTYLEWYQQKPGKAPNLLIYKVSNRFSGVPSRFSGSGSGTDFTLTISSLQPEDFATYYCFQGSHVPPTFGQGTKVEIK
notes: humanized full IgG captured on protein A; also called TAF KCD119
The koff is the first-order rate constant of dissociation. A low value points to slow dissociation. Broadly, the kon is the second-order rate constant of association. Read a high kon as faster complex formation. B3: in [5], the Kd was 0.23 nM, the koff is 0.00103 s⁻¹ and the kon worked out at 4.46e+06 M⁻¹ s⁻¹.

B4: KCD119 TAF / KCD119 TAF (antibody, V domains shown)
VH: B3 VH
VL: B3 VL
notes: Humanized KCD119; tested as full antibody captured on protein A; also called D19 TAF
For B4, the Kd in [6] came to 0.499 nM; in assay [7], 0.113 nM; in [8], 0.113 nM; in [9], 0.499 nM. Further, the koff worked out at 0.00628 s⁻¹ in assay [6], 0.00155 s⁻¹ in assay [7], 0.00155 s⁻¹ in [8] and 0.00628 s⁻¹ in [9]. Moreover, the kon is 1.26e+07 M⁻¹ s⁻¹ in assay [6], 1.38e+07 M⁻¹ s⁻¹ in [7], 1.38e+07 M⁻¹ s⁻¹ in [8] and 1.26e+07 M⁻¹ s⁻¹ in assay [9].

B5: 34I54I59D84S / 54G101V (antibody, V domains shown)
VH: B3 VH with M34I, N54I, S59D, N84S
VL: B3 VL with Y54G, P101V
notes: also called 34I54I59D845 / 54G101V
On to B5, for which the Kd in assay [6] is 0.00774 nM; in assay [7], 0.00683 nM; in assay [8] it was 0.00683 nM; in [9], 0.00774 nM. The koff in assay [6] is 0.000112 s⁻¹; in [7] it was 5.18e-05 s⁻¹; in assay [8] it was 5.18e-05 s⁻¹; in [9], 0.000112 s⁻¹. The kon in [6] was 1.45e+07 M⁻¹ s⁻¹; in assay [7] it was 7.59e+06 M⁻¹ s⁻¹; in [8], 7.59e+06 M⁻¹ s⁻¹; in assay [9], 1.45e+07 M⁻¹ s⁻¹.

B6: 54V59D heavy chain / 101V light chain (antibody, V domains shown)
VH: B3 VH with N54V, S59D
VL: B3 VL with P101V
notes: IgG
In assay [5], B6 showed a Kd of 0.0321 nM, a koff of 0.000213 s⁻¹ and a kon of 6.64e+06 M⁻¹ s⁻¹.

B7: 31S34I54I59D84S / 54G101V (antibody, V domains shown)
VH: B3 VH with D31S, M34I, N54I, S59D, N84S
VL: B3 VL with Y54G, P101V
notes: KCD119 TAF variant; full antibody captured on protein A; also called 31S34I54I59D845 / 54G101V; 3I534I54I59D84S / 54G101V
Consider B7, for which the Kd in [6] and in assay [9] was 0.00611 nM in each case. Moreover, the koff in assay [6] and in [9] was 7.36e-05 s⁻¹ each time. The kon in [6] was found to be 1.21e+07 M⁻¹ s⁻¹; in assay [7] it was 4.42e+06 M⁻¹ s⁻¹; in assay [8], 4.42e+06 M⁻¹ s⁻¹; in [9], 1.21e+07 M⁻¹ s⁻¹.

B8: 54V heavy chain / 101V light chain (antibody, V domains shown)
VH: B3 VH with N54V
VL: B3 VL with P101V
notes: IgG
In assay [5], B8 registered a Kd of 0.0949 nM, a koff of 0.000463 s⁻¹ and a kon of 4.88e+06 M⁻¹ s⁻¹.

B9: 54V59D heavy chain / KCD119 TAF light chain (antibody, V domains shown)
VH: B3 VH with N54V, S59D
VL: B3 VL
notes: IgG
In assay [5], B9 displayed a Kd of 0.0526 nM, a koff of 0.000307 s⁻¹ and an on-rate (kon) of 5.85e+06 M⁻¹ s⁻¹.

B10: 31S34I54I59D / 54R101V (antibody, V domains shown)
VH: B3 VH with D31S, M34I, N54I, S59D
VL: DIQLTQSPSSLSASVGDRVTITCRSSQTIVHSNGDTYLEWYQQKPGKAPNLLIRKVSNRFSGVPSRFSGSGSGTDFTLTISSLQPEDFATYYCFQGSHVPVTFGQGTKVEIKR
notes: KCD119 TAF variant
As for B10, the Kd is 0.00583 nM and 0.00961 nM in assay [6]; 0.0076 nM and 0.00596 nM in [8]; 0.00596 nM in assay [10]; 0.00961 nM in assay [11]. For the same molecule, the koff is 0.000157 s⁻¹ and 0.000237 s⁻¹ in assay [6]; 0.000106 s⁻¹ and 7.84e-05 s⁻¹ in assay [8]; 7.84e-05 s⁻¹ in assay [10]; 0.000237 s⁻¹ in assay [11]. Also, the kon was 2.69e+07 M⁻¹ s⁻¹ and 2.46e+07 M⁻¹ s⁻¹ in [6]; 1.39e+07 M⁻¹ s⁻¹ and 1.32e+07 M⁻¹ s⁻¹ in [8]; 1.32e+07 M⁻¹ s⁻¹ in assay [10]; 2.46e+07 M⁻¹ s⁻¹ in assay [11].

B11: 31S34I54I59D84S / 54R101V (antibody, V domains shown)
VH: B3 VH with D31S, M34I, N54I, S59D, N84S
VL: B10 VL
notes: KCD119 TAF variant; also called 3I534I54I59D84S / 54R101V
As for B11, the Kd in [6] is 0.00392 nM; in assay [7], less than 0.000602 nM; in assay [8] it was less than 0.000602 nM; in assay [9] it was 0.00392 nM. The koff was 0.000137 s⁻¹ in assay [6], less than 1e-05 s⁻¹ in [7], less than 1e-05 s⁻¹ in [8] and 0.000137 s⁻¹ in assay [9]. Moreover, the kon in [6] turned out to be 3.5e+07 M⁻¹ s⁻¹; in [7] it was 1.66e+07 M⁻¹ s⁻¹; in [8], 1.66e+07 M⁻¹ s⁻¹; in assay [9], 3.5e+07 M⁻¹ s⁻¹.

B12: 54V heavy chain / KCD119 TAF light chain (antibody, V domains shown)
VH: B3 VH with N54V
VL: B3 VL
notes: IgG; also called 54V/wt
B12: in assay [5], the affinity, expressed as Kd, was 0.153 nM; the koff is 0.000627 s⁻¹; the kon came to 4.09e+06 M⁻¹ s⁻¹.

B13: KCD210 (antibody, V domains shown)
VH: EVQLQQSGPVLVKPGASVTMSCKASGYTFTEYYMNWVKQSHGKSLDWIGVINPYSGGTSYKQKFKDKATLTVDKSSSTAYMELNGLTSEDSAVYFCVRGGLRRNYFDYWGQGTTLTVSS
VL: EIVLTQSPALMTASPGEKVTITCSVSSSISSTNLHWYQQKSGTSPKPWIFGTSNLASGVPVRFSGSGSGTSYSLTISNMEAEDAATYYCQQWNSYPFTFGTGTKLEIK
Regarding B13, the Kd in assay [1] stood at 2.9 nM; in assay [2], 3.5 nM; in assay [3], 3.6 nM; in assay [4] it was 2.9 nM.

B14: KCD018 (antibody, V domains shown)
VH: QVQLQQSAAELARPGASVKMSCKASGYTFTSYTVHWVKQRPGQGLEWIGYINPSSGFTDYNQKFKDKTTLTADISSSTAYIQLSSLTSEDSAVYYCARRGVNWSWFAYWGQGTLVTVSA
VL: NIMMTQSPSSLAVSAGEKVTMSCKSSQSVLYSSNQKNYLAWYQQKPGQSPQLLIYWASTRESGVPERFTGSGSGTDFTLTISSVQAEDLAVYYCHQYLSSWTFGGGTKLEIK
Turning to B14, the Kd was 99 nM in assay [1], 41 nM in assay [2], 52 nM in assay [3] and 41 nM in assay [4].

B15: KCD008 (antibody, V domains shown)
VH: EVQLQQSGPELVKAGASVKMSCTASGFNIKDTYMHWVKQRPEQGLAWIGRIDPANGNIKYDPKFQGKATITADTSSNTAYLQLSSLTSDDTAVYYCTSAMDYWGQGTSVTVSS
VL: QIVLTQSPEIMSASPGEKVTMTCSARSSVSYMYWYQQKPGSSPRLLIYDTSNLASGVPVRFSGSGSGTSYSLTISRMETEDAATYYCQQWSTYPFTFGSGTKLEIK
For the molecule B15, the Kd in assay [1] was found to be 5.7 nM; in assay [2], 4.4 nM; in assay [3], 66 nM; in assay [4] it was 3.2 nM.

B16: KCD065 (antibody, V domains shown)
VH: QVQLQQSGAELARPGASVKMSCKASGYTFTTYTIHWVKQRPGQGLEWIGYINPSSDFTNYNQNFADKATLTADRSSSTAYMQLSSLTSEESAVYYCAIRLGYDRQGWYFDVWGAGTTVTVSS
VL: DIVMTQSHKFLSTSLGDRVSITCKASQDVGSAVAWYQQKPGQSPDLLIYWTFTRHTGVPDRFTGSRSGTDFTLTISNVQSGDLADYFCQQYSNYPLTFGGGTKLEIK
In the case of B16, the Kd was 25 nM in assay [1], 3.3 nM in assay [2], 25 nM in assay [3] and 17 nM in [4].
